Test [1] concerns the target T1, human FcRn/b2M (human, UniProt P61769 21-119, biotinylated).
T1 construct: bought recombinant biotinylated protein (ACRO FCM-H82W4 or Immunitrack ITF01); also called hFcRn; hFcRn/hb2M
The test can be described thus: SPR off-rate; pH 7.4 vs pH 6.0.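 Note: surface plasmon resonance with diluted periplasmic extracts flowed over ligand surfaces, 120 s association and 600–3600 s dissociation at 25 °C, running buffer containing 150 mM NaCl.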
Procedure: (§1) All kinetic measurements have been performed on ProteOn XPR36 (BioRad Laboratories, Inc.), MASS-2 (Sierra sensors, Gmbh) or SPR-32 (Bruker Corporation). […] The phytip purified periplasmic extracts were diluted 1:10 in running buffer (CPA+150 mM NaCl+0.005% Tw20 at pH 5.5, pH 6.0 or pH 7.4) and injected over the ligand surfaces (association: 120 s at 45 μL/min; dissociation: 600s-3600 s at 45 μL/min). Experiments were carried out at 25° C.

In test [2] the target is T2, cyno FcRn/b2M (cyno, UniProt Q8SPV9 24-297; Q8SPW0 21-119, biotinylated).
T2 construct: bought recombinant biotinylated protein (Immunitrack ITF05 or ACRO FCM-C82W5); also called cFcRn; cFcRn/cb2M
T2 sequence (Q8SPV9 24-297 limits assumed, chain 1 of 2): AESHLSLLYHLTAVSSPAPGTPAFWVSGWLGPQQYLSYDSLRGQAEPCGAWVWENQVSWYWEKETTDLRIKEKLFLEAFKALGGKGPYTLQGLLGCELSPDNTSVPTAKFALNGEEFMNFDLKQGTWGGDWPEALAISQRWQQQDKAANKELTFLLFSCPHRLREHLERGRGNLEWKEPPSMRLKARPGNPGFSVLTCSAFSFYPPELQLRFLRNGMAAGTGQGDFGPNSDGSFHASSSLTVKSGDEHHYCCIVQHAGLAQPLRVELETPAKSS
T2 sequence (Q8SPW0 21-119 limits assumed, chain 2 of 2): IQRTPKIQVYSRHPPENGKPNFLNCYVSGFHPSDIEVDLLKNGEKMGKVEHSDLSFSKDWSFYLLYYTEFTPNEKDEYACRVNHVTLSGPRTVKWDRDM
The test can be described thus: SPR off-rate; pH 7.4 vs pH 6.0.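 Note: surface plasmon resonance with diluted periplasmic extracts flowed over ligand surfaces, 120 s association and 600–3600 s dissociation at 25 °C, running buffer containing 150 mM NaCl.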
Procedure: as §1

Test [3] concerns the target T1, human FcRn/b2M. The test can be described thus: SPR pH 6.0.
Procedure: as §1
Test [4] concerns the target T2, cyno FcRn/b2M. Kind of test: SPR pH 6.0.
Procedure: as §1
Test [5] has as its target T1, human FcRn/b2M. The test can be described thus: SPR pH 7.4.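 Note: surface plasmon resonance kinetics, periplasmic extracts diluted 1:10 flowed over immobilized target at 25 °C, 120 s association then 600–3600 s dissociation, buffer with 150 mM NaCl.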
Procedure: as §1
In test [6] the target is T2, cyno FcRn/b2M. The test can be described thus: SPR pH 7.4.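 Note: surface plasmon resonance kinetics, periplasmic extracts diluted 1:10 flowed over immobilized target at 25 °C, 120 s association then 600–3600 s dissociation, buffer with 150 mM NaCl.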
Procedure: as §1
The target in test [7] is T1, human FcRn/b2M. Kind of test: SPR pH 6.0. The source holds these as a separate data set.

The source of these data is patent publication US20240132624A1 (Ablynx, published 2024).

T1 sequence (chain, as listed by the source limits assumed, chain 1 of 2): as the sequence (Q8SPV9 24-297 limits assumed, chain 1 of 2) above, with D39N, Q44E, S99G, G189S, N190S, M217L, T269S counted along it
T1 sequence (P61769 21-119 limits assumed, chain 2 of 2): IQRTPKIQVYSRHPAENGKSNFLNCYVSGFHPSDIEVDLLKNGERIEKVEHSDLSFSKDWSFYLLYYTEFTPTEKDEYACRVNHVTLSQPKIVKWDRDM

B1: T0263018B11 W100cV (VHH, name in Kabat numbering)
VHH: EVQLVESGGGVVQPGGSLRLSCAASGFTFSSYAMYWVRQAPGKGLEWVSAISSGGGSTDYADSVKGRFTISRDNSKNTLYLQMNSLRPEDTALYYCAADTLYTSLTVYSYWGQGTLVTVSS
notes: FLAG3-His6 tagged
B1: the figures for the “kd ratio pH 7.4/6.0” value in test [1] and in test [2] were 61 and 76, respectively. For the same molecule, the koff – broadly, a measure of how fast the partners let go of each other – stood at 0.0082 s⁻¹ in test [3], 0.0024 s⁻¹ in test [4], 0.5 s⁻¹ in test [5] and 0.18 s⁻¹ in test [6].

B2: T0263018B11 Y32F (VHH, name in Kabat numbering)
VHH: EVQLVESGGGVVQPGGSLRLSCAASGFTFSSFAMYWVRQAPGKGLEWVSAISSGGGSTDYADSVKGRFTISRDNSKNTLYLQMNSLRPEDTALYYCAADTLYTSLTWYSYWGQGTLVTVSS
notes: FLAG3-His6 tagged
As for B2, the “kd ratio pH 7.4/6.0” value is 39 in test [1] and 46 in test [2]. In addition, the koff is 0.00066 s⁻¹ in test [3], 0.00042 s⁻¹ in test [4], 0.026 s⁻¹ in test [5] and 0.019 s⁻¹ in test [6].

B3: T0263018B11 Y32V (VHH, name in Kabat numbering)
VHH: EVQLVESGGGVVQPGGSLRLSCAASGFTFSSVAMYWVRQAPGKGLEWVSAISSGGGSTDYADSVKGRFTISRDNSKNTLYLQMNSLRPEDTALYYCAADTLYTSLTWYSYWGQGTLVTVSS
notes: FLAG3-His6 tagged
As for B3, the results for the “kd ratio pH 7.4/6.0” value in test [1] and in test [2] were 12 and 60, respectively. The off-rate constant (koff) in test [3] turned out to be 0.004 s⁻¹; in test [4], 0.0022 s⁻¹; in test [5] it was 0.048 s⁻¹; in test [6] it was 0.13 s⁻¹.

B4: T0263018B11 Y32L (VHH, name in Kabat numbering)
VHH: EVQLVESGGGVVQPGGSLRLSCAASGFTFSSLAMYWVRQAPGKGLEWVSAISSGGGSTDYADSVKGRFTISRDNSKNTLYLQMNSLRPEDTALYYCAADTLYTSLTWYSYWGQGTLVTVSS
notes: FLAG3-His6 tagged
Consider B4, for which the “kd ratio pH 7.4/6.0” value worked out at 49 in test [1] and 46 in test [2]. Also, the koff was determined as 0.013 s⁻¹ in test [3], 0.0084 s⁻¹ in test [4], 0.61 s⁻¹ in test [5] and 0.39 s⁻¹ in test [6].

B5: T0263018B11 W100cY (VHH, name in Kabat numbering)
VHH: EVQLVESGGGVVQPGGSLRLSCAASGFTFSSYAMYWVRQAPGKGLEWVSAISSGGGSTDYADSVKGRFTISRDNSKNTLYLQMNSLRPEDTALYYCAADTLYTSLTYYSYWGQGTLVTVSS
notes: FLAG3-His6 tagged
With B5, the “kd ratio pH 7.4/6.0” value in test [1] was found to be 43; in test [2], 50. Moreover, the koff in test [3] is 0.0021 s⁻¹; in test [4] it was 0.0015 s⁻¹; in test [5], 0.09 s⁻¹; in test [6], 0.075 s⁻¹.

B6: T0263018B11 Y35F (VHH, name in Kabat numbering)
VHH: EVQLVESGGGVVQPGGSLRLSCAASGFTFSSYAMFWVRQAPGKGLEWVSAISSGGGSTDYADSVKGRFTISRDNSKNTLYLQMNSLRPEDTALYYCAADTLYTSLTWYSYWGQGTLVTVSS
notes: FLAG3-His6 tagged
On to B6, for which the “kd ratio pH 7.4/6.0” value came out at 33 in test [1] and 46 in test [2]. In addition, the off-rate (koff) was 0.0043 s⁻¹ in test [3], 0.0035 s⁻¹ in test [4], 0.14 s⁻¹ in test [5] and 0.16 s⁻¹ in test [6].

B7: T026301051 (VHH, name in Kabat numbering)
VHH: EVQLVESGGGVVQPGGSLRLSCAASGFTFSSYDMYWVRQAPGKGLEWVSAISSGGGSTDYADSVKGRFTISRDNSKNTLYLQMNSLRPEDTALYYCAADTLYTDLTWYSYWGQGTLVTVSS
notes: tagless
In the case of B7, the koff in test [7] was 0.012 s⁻¹.

B8: T0263018B11 Y32S (VHH, name in Kabat numbering)
VHH: EVQLVESGGGVVQPGGSLRLSCAASGFTFSSSAMYWVRQAPGKGLEWVSAISSGGGSTDYADSVKGRFTISRDNSKNTLYLQMNSLRPEDTALYYCAADTLYTSLTWYSYWGQGTLVTVSS
notes: FLAG3-His6 tagged
In the case of B8, the “kd ratio pH 7.4/6.0” value in test [1] was 35; in test [2] it was 52. Moreover, the off-rate (koff) in test [3] stood at 0.0054 s⁻¹; in test [4], 0.0028 s⁻¹; in test [5], 0.19 s⁻¹; in test [6] it was 0.14 s⁻¹.

B9: T026301054 (VHH, name in Kabat numbering)
VHH: EVQLVESGGGVVQPGGSLRLSCAASTFTFSEYAMYWVRQAPGKGLEWVSAISQGGGSTDYADSVKGRFTISRDNSKNTLYLQMNSLRPEDTALYYCAADTLYTDLTWYSYWGQGTLVTVSS
notes: tagless
Take B9: in test [7], the off-rate constant (koff) is 0.041 s⁻¹.

B10: T0263018B11 Y98F (VHH, name in Kabat numbering)
VHH: EVQLVESGGGVVQPGGSLRLSCAASGFTFSSYAMYWVRQAPGKGLEWVSAISSGGGSTDYADSVKGRFTISRDNSKNTLYLQMNSLRPEDTALYYCAADTLFTSLTWYSYWGQGTLVTVSS
notes: FLAG3-His6 tagged
Turning to B10, the “kd ratio pH 7.4/6.0” value turned out to be 75 in test [1] and 84 in test [2]. Further, the dissociation rate constant (koff) in test [3] turned out to be 0.00053 s⁻¹; in test [4], 0.00026 s⁻¹; in test [5], 0.04 s⁻¹; in test [6] it was 0.022 s⁻¹.

B11: T0263018B11 Y102T (VHH, name in Kabat numbering)
VHH: EVQLVESGGGVVQPGGSLRLSCAASGFTFSSYAMYWVRQAPGKGLEWVSAISSGGGSTDYADSVKGRFTISRDNSKNTLYLQMNSLRPEDTALYYCAADTLYTSLTWYSTWGQGTLVTVSS
notes: FLAG3-His6 tagged
Take B11: the figures for the “kd ratio pH 7.4/6.0” value in test [1] and in test [2] were 38 and 50, respectively. Besides, the koff in test [3] came to 0.0017 s⁻¹; in test [4], 0.0012 s⁻¹; in test [5], 0.065 s⁻¹; in test [6] it was 0.06 s⁻¹.

B12: T0263018B11 Y100dF (VHH, name in Kabat numbering)
VHH: EVQLVESGGGVVQPGGSLRLSCAASGFTFSSYAMYWVRQAPGKGLEWVSAISSGGGSTDYADSVKGRFTISRDNSKNTLYLQMNSLRPEDTALYYCAADTLYTSLTWFSYWGQGTLVTVSS
notes: FLAG3-His6 tagged
In the case of B12, the “kd ratio pH 7.4/6.0” value in test [1] was determined as 26; in test [2], 34. Moreover, the koff in test [3] was determined as 0.0023 s⁻¹; in test [4] it was 0.0017 s⁻¹; in test [5], 0.06 s⁻¹; in test [6] it was 0.057 s⁻¹.

B13: T026301050 (VHH, name in Kabat numbering)
VHH: EVQLVESGGGVVQPGGSLRLSCAASTFTFSSYAMYWVRQAPGKGLEWVSAISQGGGSTDYADSVKGRFTISRDNSKNTLYLQMNSLRPEDTALYYCAADTLYTDLTWYSYWGQGTLVTVSS
notes: tagless
Take B13: in test [7], the dissociation rate constant (koff) was determined as 0.029 s⁻¹.

B14: T0263018B11 Y32T (VHH, name in Kabat numbering)
VHH: EVQLVESGGGVVQPGGSLRLSCAASGFTFSSTAMYWVRQAPGKGLEWVSAISSGGGSTDYADSVKGRFTISRDNSKNTLYLQMNSLRPEDTALYYCAADTLYTSLTWYSYWGQGTLVTVSS
notes: FLAG3-His6 tagged
Turning to B14, the “kd ratio pH 7.4/6.0” value in test [1] was 42; in test [2] it was 60. Besides, the koff in test [3] was 0.0045 s⁻¹; in test [4] it was 0.0035 s⁻¹; in test [5] it was 0.19 s⁻¹; in test [6] it was 0.21 s⁻¹.

B15: T0263018B11 Y32Q (VHH, name in Kabat numbering)
VHH: EVQLVESGGGVVQPGGSLRLSCAASGFTFSSQAMYWVRQAPGKGLEWVSAISSGGGSTDYADSVKGRFTISRDNSKNTLYLQMNSLRPEDTALYYCAADTLYTSLTWYSYWGQGTLVTVSS
notes: FLAG3-His6 tagged
As for B15, the “kd ratio pH 7.4/6.0” value in test [1] was determined as 60; in test [2], 75. In addition, the off-rate (koff) in test [3] was 0.0023 s⁻¹; in test [4], 0.0013 s⁻¹; in test [5] it was 0.14 s⁻¹; in test [6], 0.099 s⁻¹.

B16: T026301052 (VHH, name in Kabat numbering)
VHH: EVQLVESGGGVVQPGGSLRLSCAASTFTFSEYDMYWVRQAPGKGLEWVSAISSGGGSTDYADSVKGRFTISRDNSKNTLYLQMNSLRPEDTALYYCAADTLYTSLTWYSYWGQGTLVTVSS
notes: tagless
Consider B16, for which, in test [7], the koff was 0.0056 s⁻¹.
